The target in assay [1] is T1, Aβ42 (Homo sapiens, UniProt P05067).
T1 construct: purchased Abcam ab120301
Description: Spiking and recovery test of Aβ42. As to conditions: PBS, 100 μM peptide assay, triplicate. As to the method:
PBS and human serum were used as solutions for the spiking test. Each of the Aβ42 and Aβ40 stock solutions was diluted using PBS, and the mixture was diluted using human serum. The diluted samples were added to antibody-coated plates and incubated for 2 h. The binding conditions used for the antibody coating and the peptide, streptavidin, and TMB treatment steps are described above. To calculate the recovery ratio, we divided the signals of the mixtures by the signals of Aβ42.

For assay [2], the target named is T1, Aβ42. Description: Binding of synthetic biotinylated peptide to Aβ42 captured on antibody-coated plate (enzyme-linked peptide assay, OD450). As to conditions: biotin-conjugated peptide serially diluted, 1 h, PBST, Aβ42 captured by anti-Aβ42 antibody (protein G plate), streptavidin-HRP/TMB, Hill-slope fitting, triplicate, read-out: dissociation constant (KD). As to the method: ABPP was conjugated with biotin as a signal reporter, with a purity greater than 95%, as assessed using high-performance liquid chromatography. The binding affinities of peptides were estimated for each Aβ42- and antibody-coated plate. The coating methods followed the protocol described above, except for the use of PBST instead of TBST. After coating the plate with Aβ42, serially diluted peptide was added to the plate for 1 h. After peptide incubation, all wells were washed four times with PBST. Next, the wells were incubated with 100 µL of streptavidin-HRP (1:4000 in PBST) for 1 h. After incubation, the solution in the wells was washed four times with PBST. TMB solution was added to each well for 15 min. Next, 100 µL of 1 M H2SO4 was added to the wells to stop the reaction, and the absorbance was measured at 450 nm (OD450) using a microplate reader. To determine the detection range, serially diluted Aβ42 was added to the antibody-coated plates. After washing, the plate was incubated for 1 h with 100 µL of 100 µM peptide. Streptavidin and TMB treatment steps were performed as described above. Based on the measurements, the limit of detection (LOD) for the diagnostic system was calculated according to the formula from the IUPAC: LOD = 3 × SD/slope. To verify the specificity of our diagnostic system, other amyloid proteins were added to the antibody-coated plates. […]

Ends that are not written are not given here.

T1 sequence (P05067 672-713 limits assumed): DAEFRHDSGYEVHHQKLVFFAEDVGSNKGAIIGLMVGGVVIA

As for “Aβ42: Aβ42 (ab120301) purchased from Abcam; analyte spiked in recovery test”, the “Average Recovery” value with Aβ42 [1] (Aβ40 + Aβ42 = 10 + 40 ng/mL, SD 12.46%, %RSD 12.84) is recorded as 97.02%; with Aβ42 [1] (Aβ40 + Aβ42 = 20 + 40 ng/mL, SD 5.81%, %RSD 6.053), 96.04%; with Aβ42 [1] (Aβ40 + Aβ42 = 40 + 40 ng/mL, SD 10.51%, %RSD 10.15), 104.5%.
By Kd is commonly meant the free concentration of one partner at which half of the binding sites on the other are occupied at equilibrium, for simple one-to-one binding. Regarding SEPQNIWQYLRN [ABPP], the Kd on Aβ42 [2] worked out at 17.5 ± 2.98 µM.
